Measurements published in PMC3878821.
Substitutions are numbered along the chain they refer to. In names and notes the source's numbering stands.

B1: ROS1 kinase domain G2032R mutant (Homo sapiens; G2032R) (protein)
chain: IENLPAFPREKLTLRLLLGSGAFGEVYEGTAVDILGVGSGEIKVAVKTLKKGSTDQEKIEFLKEAHLMSKFNHPNILKQLGVCLLNEPQYIILELMEGRDLLTYLRKARMATFYGPLLTLVDLVDLCVDISKGCVYLERMHFIHRDLAARNCLVSVKDYTSPRIVKIGDFGLARDIYKNDYYRKRGEGLLPVRWMAPESLMDGIFTTQSDVWSFGILIWEILTLGHQPYPAHSNLDVLNYVQTGGRLEPPRNCPDDLWNLMTQCWAQEPDQRPTFHRIQDQLQLFRNFFLNSIYKSRDE
B2: ROS1 kinase domain (nonmutant) (Homo sapiens) (protein)
chain: B1 chain with R99G

Substrate: Nc1ncnc2c1ncn2[C@@H]1O[C@H](COP(=O)(O)OP(=O)(O)OP(=O)(O)O)[C@@H](O)[C@H]1O
Test: in vitro enzymatic assay, Km app for ATP
Assay type: biochemical, Homo sapiens
Details: ATP-binding site

Protein	Km [µM]
B1	22
B2	65
